For data set [1], the target named is Rev (Human immunodeficiency virus 1) (UniProt P04325). The conditions noted are these: cited from earlier work.
Data set [2] deals with Rev116 (HIV-1, UniProt P04616 1-116). Description: analytical ultracentrifugation.
For data set [3], the target named is HIV-1 Rev^93 (C-terminally truncated Rev, amino acids 1-93) (HIV-1, UniProt P04618). Description: crystal structure.
The target in data set [4] is HIV-1 Rev^116 (full-length wild-type Rev) (HIV-1, UniProt P04618). In words: light scattering at 320 nm of the.
Data set [5] addresses T1, HIV-1 Rev^116 (full-length wild-type Rev) (HIV-1), P04618.
T1 chain: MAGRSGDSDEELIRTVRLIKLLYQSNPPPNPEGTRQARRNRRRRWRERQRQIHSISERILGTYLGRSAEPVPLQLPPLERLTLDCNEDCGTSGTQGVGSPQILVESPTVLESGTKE
Description: AUC. To be noted: remark: other sources report otherwise.

For data set [6], the target named is T1, HIV-1 Rev^116 (full-length wild-type …). Description: light scattering at 320 nm of thermally induced assembly. To be noted: remark: other sources report otherwise.

Turning to Rev (from UniProt P04325), in data set [1], the dissociation constant (Kd) is 1 µM.

B1: RBA-14 (structured_RNA)
RNA: GGCUGGACUCGUACUUCGGUACUGGAGAAACAGCC
In the case of B1, the binding result in data set [2] is listed as “binds”.

B2: chimeric rabbit/human scFv SJS-R1 (anti-Rev single-chain variable fragment) (scFv, V domains shown)
VH: QEQLVESGGRLVTPGTALTLTCKVSGFSLSGFWLNWVRQAPGKGLEWVGAIYRGSGSEWYASWAKGRFTISDTSTTVTLKLTSPTTEDTATYFCAADTTDNGYFTIWGPGTLVTVSS
VL: ELVMTQTPSSVSEPVGGTVTIKCQASQSISSWLSWYQQKPGQPPKLLIYDASNLASGVPSRFMGSGSGTEYTLTISGVQREDAATYYCLGGYPAASYRTAFGGGTELEII
For the molecule B2, the binding result in data set [3] and in data set [4] was “binds” in each case.

B3: HIV-1 Rev^116 (full-length wild-type Rev), P04618 1-116 (natural protein)
chain: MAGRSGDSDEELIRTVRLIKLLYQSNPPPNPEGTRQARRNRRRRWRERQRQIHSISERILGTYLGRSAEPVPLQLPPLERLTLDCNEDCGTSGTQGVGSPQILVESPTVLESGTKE
The molecule B3 had a stoichiometry N in data set [5] of 4. This molecule showed a critical concentration (Cr) of polymer formation in data set [6] of 11 µM.

One may read the Kd as a measure of binding affinity in units of concentration. A word on the stoichiometry N: it is the number of molecules, sites or subunits per partner or assembly.

The values above are taken from article PMC7319042 (Structure (London, England : 1993), 2018).
